Key:
[1] = molecular target: Cetuximab light chain Q38R_Q124R_Q160K_T178R; assay: SMCA: H1, H2, L1, L2 co-expressed in CHO-3E7, protein A purified, LC-MS; competing light chain m18
[2] = molecular target: Cetuximab light chain Q38R_Q124R_Q160K_T178R; assay: SMCA: H1, H2, L1, L2 co-expressed in CHO-3E7, protein A purified, LC-MS; competing light chain m18; against wild-type bispecific
[3] = molecular target: Cetuximab light chain Q38R_Q124R_Q160K_T178R; assay: SMCA: H1, H2, L1, L2 co-expressed in CHO-3E7, protein A purified, LC-MS; competing light chain m10; *** estimated change against a similar wild-type construct
[4] = molecular target: tissue factor (TF) antigen (UniProt P13726); assay: SPR (ProteOn), Fab captured via anti-penta-His, TF injected, 1:1 fit
[5] = molecular target: tissue factor (TF) antigen (UniProt P13726); assay: SPR (ProteOn), Fab captured via anti-penta-His, TF injected, 1:1 fit; estimated (*) from a Fab differing only in L chain tag
[6] = molecular target: tissue factor (TF) antigen (UniProt P13726); assay: SPR (ProteOn), Fab captured via anti-penta-His, TF injected, 1:1 fit; reference wild-type D3H44 Fab; estimated (*) from a Fab differing only in L chain tag
[7] = molecular target: tissue factor (TF) antigen (UniProt P13726); assay: SPR (ProteOn), Fab captured via anti-penta-His, TF injected, 1:1 fit; reference wild-type D3H44 Fab
[8] = molecular target: tissue factor (TF) antigen (UniProt P13726); assay: SPR, ProteOn XPR36; His-tagged Fab captured on anti-penta-His, TF injected; 1:1 fit; batch C (+); Set # read as 9787
[9] = molecular target: tissue factor (TF) antigen (UniProt P13726); assay: SPR as for KD; reference: wild-type D3H44 Fab; batch C (+)
[10] = molecular target: tissue factor (TF) antigen (UniProt P13726); assay: SPR, ProteOn XPR36; His-tagged Fab captured on anti-penta-His, TF injected; 1:1 fit; batch C (+)
[11] = molecular target: tissue factor (TF) antigen (UniProt P13726); assay: SPR as for KD; reference: wild-type D3H44 Fab; batch C (+); Set # read as 9787
[12] = molecular target: Trastuzumab light chain Q38R_Q124R_Q160K_T178R; assay: SMCA: H1, H2, L1, L2 co-expressed in CHO-3E7, protein A purified, LC-MS; competing light chain m16
[13] = molecular target: Trastuzumab light chain Q38E_Q124E_Q160E_T180E; assay: SMCA: H1, H2, L1, L2 co-expressed in CHO-3E7, protein A purified, LC-MS; competing light chain m14; against wild-type bispecific
[14] = molecular target: Trastuzumab light chain Q38E_Q124E_Q160E_T180E; assay: SMCA: H1, H2, L1, L2 co-expressed in CHO-3E7, protein A purified, LC-MS; competing light chain m12; against wild-type bispecific
[15] = molecular target: Trastuzumab light chain Q38E_Q124E_Q160E_T180E; assay: SMCA: H1, H2, L1, L2 co-expressed in CHO-3E7, protein A purified, LC-MS; competing light chain m14
[16] = molecular target: Trastuzumab light chain Q38E_Q124E_Q160E_T180E; assay: SMCA: H1, H2, L1, L2 co-expressed in CHO-3E7, protein A purified, LC-MS; competing light chain m12

Question: Which % H2L2 Pairing (over all H2 species) [1] does the source give for “Cetuximab heavy chain Q39E_L143E_K145T_Q179E” here?
Answer: The % H2L2 Pairing (over all H2 species) was 52.3%.

Question: And the Change in % H2L2 Pairing (over all H2 species) with respect to wild type [2]?
Answer: The Change in % H2L2 Pairing (over all H2 species) with respect to wild type was 22.7%.

Question: What about the Change in % H2L2 Pairing (over all H2 species) with respect to wild type [3] of the same substance?
Answer: The Change in % H2L2 Pairing (over all H2 species) with respect to wild type was 1.6%.

Question: Which results are given for “D3H44 Fab heterodimer (H1L1) of LCCA Sets # 9683, 9684: H1 L143E_K145T_Q179E, L1 T178R”?
Answer: Kd [4]: 0.3 nM; Kd [5]: 0.3 nM; change in median KD compared to wild type, -(log(KD design)-log(KD wt)) [6]: -0.28; change in median KD compared to wild type, -(log(KD design)-log(KD wt)) [7]: -0.28

Question: What does the source list for “D3H44 Fab heterodimer, H1L1 of LCCA Sets # 9794, 9796, 9797, 9792, 9789 and 9787 (H1 Q179K; L1 Q124E_T180E)”?
Answer: Kd [8]: 0.11 nM; change in median KD compared to wild type, -(log(KD design)-log(KD wt)) [9]: 0.16; Kd [10]: 0.11 nM; change in median KD compared to wild type, -(log(KD design)-log(KD wt)) [11]: 0.16

Question: With “Trastuzumab heavy chain Q39E_L143E_K145T_Q179E (from UniProt P0DOX5 2-448)” as the substance, how does the % H1L1 Pairing (over all H1 species) [12] read?
Answer: Its % H1L1 Pairing (over all H1 species) is 100%.

Question: Which Change in % H2L2 Pairing (over all H2 species) with respect to wild type [13] does the source give for “Trastuzumab heavy chain Q39R_H172R_Q179K (from UniProt P0DOX5 2-448)” here?
Answer: Its Change in % H2L2 Pairing (over all H2 species) with respect to wild type is 7%.

Question: What about the Change in % H1L1 Pairing (over all H1 species) with respect to wild type [14] of the same substance?
Answer: The Change in % H1L1 Pairing (over all H1 species) with respect to wild type was 6%.

Question: And the % H2L2 Pairing (over all H2 species) [15]?
Answer: The % H2L2 Pairing (over all H2 species) was 100%.

Question: What about the % H1L1 Pairing (over all H1 species) [16] of the same substance?
Answer: Its % H1L1 Pairing (over all H1 species) is 100%.

— US11306156
